Common to all, as to assay: flow cytometry on human CLDN18.1-HEK293 cells, antibody at 100 µg/mL
Background: Flow cytometry measures light scatter and fluorescence of single cells or particles in a stream.

Assay [1] has as its target human CLDN18.1 (human) (UniProt P56856).
Assay [2] has the same target. The source holds these as a separate data set.
The target is the same in assay [3]. This is another data set of the same source.

Experimental findings from patent US20240092891A1 are described below.

Like-named read-outs stand apart in the source and are kept apart here.

Chain of human CLDN18.1 (human) (P56856 whole entry): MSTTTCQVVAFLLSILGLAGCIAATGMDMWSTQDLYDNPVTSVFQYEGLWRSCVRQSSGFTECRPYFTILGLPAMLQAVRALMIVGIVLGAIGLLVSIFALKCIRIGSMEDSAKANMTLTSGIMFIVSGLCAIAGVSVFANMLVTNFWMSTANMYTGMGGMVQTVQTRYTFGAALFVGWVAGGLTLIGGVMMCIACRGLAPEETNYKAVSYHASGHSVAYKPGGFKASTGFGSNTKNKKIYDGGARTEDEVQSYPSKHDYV

For irrelevant control hIgG1 (antibody), the positive rate of cell binding with human CLDN18.1 (human) [1] came to 0.049%; in the assay with human CLDN18.1 (human) [2], 0.851%; with human CLDN18.1 (human) [3], 0.067%.
